Measurements as given in publication PMC11484706.

Tests used:
Experiment in all cases: PU-beads capture (affinity pull-down), immunoblot band quantification
Conditions in all cases: HEK293 cells transfected with the mutant; n = 3; input = 2% of protein incubated with the beads; read off a plot
[1] = biological target: AHA1 (endogenous, HEK293)
HOP (endogenous, HEK293) = biological target: HOP (endogenous, HEK293)
[2] = biological target: HSP110 (endogenous, HEK293)
[3] = biological target: PU-beads (PU-H71 epichaperome affinity probe)

With mCherry WT HSP90β (HEK293) S226A; S255A the response (normalized to MDA-MB-468) [1] was 0.65, the response (normalized to MDA-MB-468) (HOP (endogenous, HEK293)) was 0.25 and the response (normalized to MDA-MB-468) [2] was 0.63. It also gave a response (normalized to MDA-MB-468) [3] of 0.65.
